Experimental data as given in US20210155712A1 (HUMMINGBIRD BIOSCIENCE HOLDINGS PTE, published 2021).

Columns and labels:
human EGFR [1] = target: T1, human EGFR (human, UniProt P00533 25-645); assay: ELISA, coated human EGFR (HER1), antibody titrated, absorbance 450 nm
T1 construct: also called human HER1 (EGFR); human EGFR-His

human HER2 [2] = target: T2, human HER2 (human, UniProt P04626 23-652); assay: ELISA, coated human HER2, antibody titrated, absorbance 450 nm
T2 construct: also called His-tagged HER2 protein

[3] = target: T3, human HER3 expressed on cells (human, UniProt P21860 20-1342); assay: flow cytometry on HEK293 cells overexpressing human HER3, 20 ug/ml antibody, FITC anti-Fc secondary
T3 construct: HEK293 cells transfected with a vector encoding human HER3; Also used here for HER3 on U2OS PathHunter cells and cancer cell lines; also called HEK293 HER3 O/E cells; HER3-expressing cells
Procedure: The cells were washed thrice with FACS buffer (PBS with 5 mM EDTA and 0.5% BSA) and resuspended in FITC-conjugated anti-FC antibody (Invitrogen, USA) for 40 min at 2-8° C. Cells were washed again and resuspended in 200 μL of FACS flow buffer (PBS with 5 mM EDTA) for flow cytometric analysis using MACSQuant 10 (Miltenyi Biotec, Germany). After acquisition, all raw data were analyzed using Flowlogic software. Cells were gated using forward and side scatter profile percentage of positive cells was determined for native and overexpressing cell populations.

human HER2 [4] = target: T2, human HER2; assay: ELISA, plate coated with 0.1 ug/ml target polypeptide, antibody titrated, absorbance 450 nm
Procedure: (§1) ELISAs were used to determine the binding specificity of the antibodies. […] The antibodies were also analysed for their ability to bind to human EGFR and human HER2 (Sino Biological Inc., China).
(§2) ELISAs were carried out according to standard protocols. Briefly, 96-well plates (Nunc, Denmark) were coated with 0.1 μg/ml of target polypeptide in phosphate-buffered saline (PBS) for 16 h at 4° C. After blocking for 1 h with 1% BSA in Tris buffer saline (TBS) at room temperature, the anti-HER3 antibody was serially diluted with the highest concentration being 10 μg/ml, and added to the plate. Post 1 h incubation at room temperature, plates were washed three times with TBS containing 0.05% Tween 20 (TBS-T) and were then incubated with a HRP-conjugated […] antibody (Life Technologies, Inc., USA) for 1 h at room temperature. After washing, plates were developed with colorimetric detection substrate 3,3′,5,5′-tetramethylbenzidine (Turbo-TMB; Pierce, USA) for 10 min. The reaction was stopped with 2M H₂SO₄, and OD was measured at 450 nm.

human EGFR [5] = target: T1, human EGFR; assay: as above
Procedure: as §1, §2

B1: 10D1F.FcA (antibody, human IgG1, kappa)
heavy: not shown
light: DIQMTQSPSSVSASVGDRVTITCKASQIVGSNVAWYQQKPGKAPEPLIYSASYLYSGVPSRFSGSGSGTDFTLTISSLQPEDFATYYCQQYSSHPLTFGQGTKLEIKRTVAAPSVFIFPPSDEQLKSGTASVVCLLNNFYPREAKVQWKVDNALQSGNSQESVTEQDSKDSTYSLSSTLTLSKADYEKHKVYACEVTHQGLSSPVTKSFNRGEC
notes: the full chains 206/207 are used here; also called 10D1F.A; anti-HER3 clone 10D1_c89 IgG1
Human EGFR [1]
  binding result: no binding (tested: last point at about log(M) -8.1)
Human HER2 [2]
  binding result: no binding (tested: last point at about log(M) -8.1)

B2: anti-HER3 clone 10D1_c90 IgG1 (antibody, V domains shown)
VH: QVQLQESGPGLVKPSQTLFLTCTVSGYSITSGYSWHWIRQHPGKGLEWIGSIRYSGGTDYNPSLKSLVTISVDTSKNQFSLKLSSVTAADTAVYYCARMTTAPWYPFDYWGQGTTVTVSS
VL: DIQMTQSPSSVSASVGDRVTFTCKASQIVGSNVAWYQQKPGKAPEPLIYSASYLYSSVPSRFSGSGSGTEFTMTISSLEPEDFATYYCQQYTTHPLTFGPGTKVEIKR
notes: IgG1/kappa
[3]
  % Parent (HER3 Positive): 41.9%

B3: anti-HER3 clone 10D1 IgG1 (antibody)
heavy: not shown
light: DIVMTQSQKFMSTSVGDRVSVTCKASQIVGSNVAWYQQKPGQSPKPLIYSASYRYSGVPDRFTASGSGTDFTLTITNVQSEDLAEYFCQQYSSHPLTFGAGTKLELKRTVAAPSVFIFPPSDEQLKSGTASVVCLLNNFYPREAKVQWKVDNALQSGNSQESVTEQDSKDSTYSLSSTLTLSKADYEKHKVYACEVTHQGLSSPVTKSFNRGEC
notes: also called 10D1P; 10D1 (parental)
Human HER2 [4]
  binding result: no binding (tested: about 2e-7 M (log -6.7))
Human EGFR [5]
  binding result: no binding (tested: about 2e-7 M (log -6.7))
